One block for each substance: values may come before it. No end group written: not given here.
Legend:
murine EphB4 = biological target: T1, murine EphB4 (Mus musculus, UniProt P54761); assay: TNYL-RAW Fc immobilized on protein A ELISA plates, binding of murine EphB4 AP; conditions: purified from HEK293 cell culture supernatants (FIG. 5B)
T1 construct: purchased R&D Systems 446-B4-200
T1 sequence (P54761 16-539 limits assumed): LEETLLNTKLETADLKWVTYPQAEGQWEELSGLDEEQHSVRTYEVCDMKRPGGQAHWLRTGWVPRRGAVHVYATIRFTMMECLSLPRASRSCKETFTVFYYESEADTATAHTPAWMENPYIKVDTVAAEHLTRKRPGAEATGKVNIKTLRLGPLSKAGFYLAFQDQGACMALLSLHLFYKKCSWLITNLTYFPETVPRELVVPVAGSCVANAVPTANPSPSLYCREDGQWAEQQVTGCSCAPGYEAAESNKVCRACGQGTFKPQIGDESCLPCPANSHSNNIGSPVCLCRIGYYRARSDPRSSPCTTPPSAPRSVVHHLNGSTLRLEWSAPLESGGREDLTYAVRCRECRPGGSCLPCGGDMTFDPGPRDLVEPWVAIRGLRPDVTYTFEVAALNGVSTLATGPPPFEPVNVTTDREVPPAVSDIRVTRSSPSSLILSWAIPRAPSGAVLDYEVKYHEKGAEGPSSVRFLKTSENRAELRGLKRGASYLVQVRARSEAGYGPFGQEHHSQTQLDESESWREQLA

EphB4 [1] = biological target: T2, EphB4 (Homo sapiens, UniProt P54760); assay: EphB4 tyrosine phosphorylation in MDA-MB-231 breast cancer cells (immunoprecipitation, PTyr immunoblot); assay type: cell-based; conditions: 2 μg/ml, clustered with anti-Fc antibodies, 20 minutes, MDA-MB-231 cells (FIG. 5E)
T2 construct: endogenous in cells; host or cells: MDA-MB-231 breast cancer cells
T2 sequence (P54760 16-987): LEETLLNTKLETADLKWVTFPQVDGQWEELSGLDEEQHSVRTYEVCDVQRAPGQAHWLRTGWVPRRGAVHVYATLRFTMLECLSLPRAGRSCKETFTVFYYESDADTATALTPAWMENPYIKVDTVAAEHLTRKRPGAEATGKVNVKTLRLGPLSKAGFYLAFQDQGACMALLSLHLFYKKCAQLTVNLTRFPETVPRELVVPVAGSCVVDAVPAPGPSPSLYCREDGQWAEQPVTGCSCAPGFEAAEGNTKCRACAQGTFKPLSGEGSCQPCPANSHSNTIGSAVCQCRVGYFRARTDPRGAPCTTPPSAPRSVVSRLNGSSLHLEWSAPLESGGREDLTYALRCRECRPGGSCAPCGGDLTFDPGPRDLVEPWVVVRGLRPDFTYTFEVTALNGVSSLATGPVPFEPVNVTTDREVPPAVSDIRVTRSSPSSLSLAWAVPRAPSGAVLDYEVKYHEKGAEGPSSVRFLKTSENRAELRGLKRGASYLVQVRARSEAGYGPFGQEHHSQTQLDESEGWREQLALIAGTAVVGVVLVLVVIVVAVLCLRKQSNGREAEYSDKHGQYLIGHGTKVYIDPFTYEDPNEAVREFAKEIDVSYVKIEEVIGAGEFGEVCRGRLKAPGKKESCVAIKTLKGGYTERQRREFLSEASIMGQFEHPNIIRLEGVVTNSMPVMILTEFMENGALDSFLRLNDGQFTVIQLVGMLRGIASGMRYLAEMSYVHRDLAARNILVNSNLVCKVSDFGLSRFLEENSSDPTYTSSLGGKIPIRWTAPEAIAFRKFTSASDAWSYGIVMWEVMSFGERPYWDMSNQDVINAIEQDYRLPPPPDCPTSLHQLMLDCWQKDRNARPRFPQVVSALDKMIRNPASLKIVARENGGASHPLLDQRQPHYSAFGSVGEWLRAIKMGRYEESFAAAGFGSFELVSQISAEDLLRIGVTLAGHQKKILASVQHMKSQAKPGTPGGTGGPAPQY
Experimental: EphB4 tyrosine phosphorylation was detected in EphB4 immunoprecipitates by immunoblotting with anti-phosphotyrosine antibodies (PTyr). […] Cells were also stimulated with 1 μg/ml ephrin-B2 Fc or human Fc as positive and negative controls, respectively.

[2] = Half-life of TNYL-RAW Fc in HEK293 cell culture medium; assay type: in vitro ADME; conditions: purified from medium in which HEK293 cells were grown for 4 days
EphB1 = assay: EphB receptor specificity (% binding), Table 1; conditions: binding to EphB1
EphB2 = EphB2 (Homo sapiens, UniProt P29323); assay: EphB receptor specificity (% binding), Table 1; conditions: binding to EphB2
EphB3 = EphB3 (Homo sapiens, UniProt P54753); assay: EphB receptor specificity (% binding), Table 1; conditions: binding to EphB3
EphB4 [3] = biological target: T3, EphB4 (Mus musculus, UniProt P54761); assay: EphB receptor specificity (% binding), Table 1; conditions: binding to EphB4
T3 sequence (P54761 16-987): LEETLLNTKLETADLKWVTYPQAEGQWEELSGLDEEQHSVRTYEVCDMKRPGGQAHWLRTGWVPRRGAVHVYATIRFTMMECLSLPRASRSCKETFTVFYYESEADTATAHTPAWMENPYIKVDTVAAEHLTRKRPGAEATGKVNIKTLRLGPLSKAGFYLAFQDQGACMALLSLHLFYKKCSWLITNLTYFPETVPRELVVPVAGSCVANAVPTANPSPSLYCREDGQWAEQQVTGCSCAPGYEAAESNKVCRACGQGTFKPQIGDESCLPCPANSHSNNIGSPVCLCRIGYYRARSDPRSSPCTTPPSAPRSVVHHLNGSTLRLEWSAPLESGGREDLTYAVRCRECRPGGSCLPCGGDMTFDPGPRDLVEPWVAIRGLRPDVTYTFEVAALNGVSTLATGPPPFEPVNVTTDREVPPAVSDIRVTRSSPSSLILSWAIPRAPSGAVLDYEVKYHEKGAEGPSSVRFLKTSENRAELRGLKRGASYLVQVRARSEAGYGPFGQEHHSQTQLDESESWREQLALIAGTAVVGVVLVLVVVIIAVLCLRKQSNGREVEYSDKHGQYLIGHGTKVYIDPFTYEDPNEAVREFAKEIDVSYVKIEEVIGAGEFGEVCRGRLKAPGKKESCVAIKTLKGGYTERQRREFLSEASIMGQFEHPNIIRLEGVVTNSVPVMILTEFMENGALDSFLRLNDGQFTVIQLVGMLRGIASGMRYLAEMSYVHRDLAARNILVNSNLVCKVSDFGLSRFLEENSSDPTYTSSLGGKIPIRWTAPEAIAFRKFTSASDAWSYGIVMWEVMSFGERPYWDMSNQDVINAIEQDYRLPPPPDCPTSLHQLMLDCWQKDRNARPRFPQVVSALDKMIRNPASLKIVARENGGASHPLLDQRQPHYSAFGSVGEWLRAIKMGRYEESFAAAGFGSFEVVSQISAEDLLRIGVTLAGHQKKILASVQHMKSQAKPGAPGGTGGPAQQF

EphB6 = biological target: T4, EphB6 (Homo sapiens, UniProt O15197); assay: EphB receptor specificity (% binding), Table 1; conditions: binding to EphB6
T4 sequence (O15197 32-1021): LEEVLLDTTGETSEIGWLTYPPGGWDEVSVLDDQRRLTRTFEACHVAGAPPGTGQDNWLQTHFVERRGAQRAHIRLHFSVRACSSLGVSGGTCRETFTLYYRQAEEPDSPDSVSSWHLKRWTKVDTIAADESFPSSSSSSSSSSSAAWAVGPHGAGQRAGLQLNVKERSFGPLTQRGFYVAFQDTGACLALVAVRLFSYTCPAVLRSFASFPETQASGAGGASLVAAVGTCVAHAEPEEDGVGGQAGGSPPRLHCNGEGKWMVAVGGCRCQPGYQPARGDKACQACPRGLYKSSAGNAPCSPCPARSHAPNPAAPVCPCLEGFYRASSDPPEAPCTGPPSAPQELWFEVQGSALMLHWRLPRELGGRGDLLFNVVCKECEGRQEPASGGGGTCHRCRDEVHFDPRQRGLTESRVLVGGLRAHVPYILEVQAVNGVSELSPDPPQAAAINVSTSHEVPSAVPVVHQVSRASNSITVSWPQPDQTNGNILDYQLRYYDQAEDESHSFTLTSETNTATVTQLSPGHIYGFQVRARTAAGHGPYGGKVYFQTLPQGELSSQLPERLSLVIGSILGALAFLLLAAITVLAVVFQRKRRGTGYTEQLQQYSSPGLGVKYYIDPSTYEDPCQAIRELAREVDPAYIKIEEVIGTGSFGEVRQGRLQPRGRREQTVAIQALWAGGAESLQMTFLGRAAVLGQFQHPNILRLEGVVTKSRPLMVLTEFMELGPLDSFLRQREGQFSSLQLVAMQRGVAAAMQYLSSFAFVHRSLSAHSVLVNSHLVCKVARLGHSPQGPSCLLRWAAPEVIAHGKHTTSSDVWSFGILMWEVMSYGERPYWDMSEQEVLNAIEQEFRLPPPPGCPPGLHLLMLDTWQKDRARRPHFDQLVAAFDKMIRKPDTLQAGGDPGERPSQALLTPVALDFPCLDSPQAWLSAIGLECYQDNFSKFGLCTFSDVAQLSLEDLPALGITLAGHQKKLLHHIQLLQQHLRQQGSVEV

murine EphB4 ectodomain = biological target: T5, murine EphB4 ectodomain (Mus musculus, UniProt P54761); assay: Inhibition of murine ephrin-B2 AP binding to immobilized murine EphB4 ectodomain (Example 4)
T5 construct: Wells coated with the murine EphB4 ectodomain
T5 sequence (P54761 16-539 limits assumed): T1 sequence (P54761 16-539 limits assumed)
Experimental: Wells coated with the murine EphB4 ectodomain were incubated with murine ephrin-B2 AP and different concentrations of the indicated peptides. Ephrin-B2 AP binding to the immobilized EphB4 receptor ectodomain was measured in the presence of various concentrations of the peptides and detected by measuring alkaline phosphatase activity. Ephrin-B2 AP binding in the presence of peptide was normalized to binding in the absence of peptide.

Chain of EphB2 (P29323 19-1055): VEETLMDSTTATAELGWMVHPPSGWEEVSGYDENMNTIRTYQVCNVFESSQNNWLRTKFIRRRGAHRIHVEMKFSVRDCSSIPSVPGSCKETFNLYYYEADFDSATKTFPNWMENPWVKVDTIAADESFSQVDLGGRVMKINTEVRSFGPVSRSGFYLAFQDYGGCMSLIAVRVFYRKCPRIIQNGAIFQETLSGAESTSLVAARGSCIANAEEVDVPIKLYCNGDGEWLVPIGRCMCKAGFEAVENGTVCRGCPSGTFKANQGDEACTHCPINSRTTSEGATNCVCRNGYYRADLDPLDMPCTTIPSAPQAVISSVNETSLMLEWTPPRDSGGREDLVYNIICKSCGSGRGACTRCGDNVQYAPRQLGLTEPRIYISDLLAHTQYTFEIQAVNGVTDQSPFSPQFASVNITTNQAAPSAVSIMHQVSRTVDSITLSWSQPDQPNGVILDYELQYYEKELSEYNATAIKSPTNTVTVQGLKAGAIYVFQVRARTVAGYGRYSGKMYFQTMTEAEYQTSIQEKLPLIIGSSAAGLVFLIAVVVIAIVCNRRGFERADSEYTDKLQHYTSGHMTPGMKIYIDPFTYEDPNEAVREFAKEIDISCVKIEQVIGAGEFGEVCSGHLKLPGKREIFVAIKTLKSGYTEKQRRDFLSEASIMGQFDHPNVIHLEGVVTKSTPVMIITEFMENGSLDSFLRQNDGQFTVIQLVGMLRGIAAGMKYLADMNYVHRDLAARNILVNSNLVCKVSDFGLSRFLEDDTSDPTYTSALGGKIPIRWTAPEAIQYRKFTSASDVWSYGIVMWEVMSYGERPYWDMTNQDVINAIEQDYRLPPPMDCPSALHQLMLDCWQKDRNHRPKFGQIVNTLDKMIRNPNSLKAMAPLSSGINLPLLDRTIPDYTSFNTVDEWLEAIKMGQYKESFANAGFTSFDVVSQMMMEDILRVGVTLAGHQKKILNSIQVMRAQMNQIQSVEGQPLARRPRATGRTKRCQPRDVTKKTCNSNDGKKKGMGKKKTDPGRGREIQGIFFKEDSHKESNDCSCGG
Chain of EphB3 (P54753 34-998): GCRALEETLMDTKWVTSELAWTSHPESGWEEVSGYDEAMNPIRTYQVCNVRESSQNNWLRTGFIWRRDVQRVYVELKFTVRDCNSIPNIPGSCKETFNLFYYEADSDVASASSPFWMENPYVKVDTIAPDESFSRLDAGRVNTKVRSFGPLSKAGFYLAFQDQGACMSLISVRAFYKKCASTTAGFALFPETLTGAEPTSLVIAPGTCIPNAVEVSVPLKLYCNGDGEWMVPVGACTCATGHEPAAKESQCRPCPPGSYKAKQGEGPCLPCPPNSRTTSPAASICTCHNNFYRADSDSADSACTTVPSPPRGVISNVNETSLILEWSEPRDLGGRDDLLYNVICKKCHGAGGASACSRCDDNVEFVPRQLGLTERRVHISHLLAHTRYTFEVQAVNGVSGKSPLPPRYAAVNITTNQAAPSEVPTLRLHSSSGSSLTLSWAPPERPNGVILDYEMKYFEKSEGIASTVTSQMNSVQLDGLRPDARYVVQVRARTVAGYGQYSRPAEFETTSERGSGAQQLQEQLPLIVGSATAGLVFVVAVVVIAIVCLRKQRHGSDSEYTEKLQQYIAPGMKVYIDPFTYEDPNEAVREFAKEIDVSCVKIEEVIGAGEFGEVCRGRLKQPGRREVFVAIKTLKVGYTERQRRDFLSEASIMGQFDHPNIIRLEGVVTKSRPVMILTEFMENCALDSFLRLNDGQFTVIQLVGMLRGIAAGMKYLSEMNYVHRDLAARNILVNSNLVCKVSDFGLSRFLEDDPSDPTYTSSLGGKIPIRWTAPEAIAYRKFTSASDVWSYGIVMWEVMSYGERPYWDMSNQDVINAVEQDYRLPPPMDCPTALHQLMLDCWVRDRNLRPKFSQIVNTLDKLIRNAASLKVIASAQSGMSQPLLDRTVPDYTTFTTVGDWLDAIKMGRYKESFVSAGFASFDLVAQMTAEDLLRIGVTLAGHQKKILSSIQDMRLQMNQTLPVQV

Substance: TNYL-RAW Fc fusion protein: TNYL-RAW peptide, GSGSK linker and human Fc of IgG1; two fusion proteins dimerize via the Fc domain (TNYLFSPNGPIARAWGSGSK-{human IgG1 Fc}; also: dimerizes via the Fc domain)
binding to EphB4 AP (murine EphB4): able to bind EphB4 AP with substantial affinity | EphB4 tyrosine phosphorylation (EphB4 [1]): did not stimulate EphB4 tyrosine phosphorylation | half-life [2]: appears to be longer than that of the synthetic peptide without Fc

EphB Receptor Specificity (% Binding) B1 (EphB1): 2% | EphB Receptor Specificity (% Binding) B2 (EphB2): 15% | EphB Receptor Specificity (% Binding) B3 (EphB3): 2% | EphB Receptor Specificity (% Binding) B4 (EphB4 [3]): 100% | EphB Receptor Specificity (% Binding) B6 (EphB6): 4%
Substance: 26 (LPHGPVAAWDA; EphB4-binding peptide) [compound 26]

IC50 (murine EphB4 ectodomain): > 10 µM
Substance: LFSPNGPIARAW [L-RAW]
